Assay results reported in US20140178854A1.

Key:
[1] = molecular target: gp70 env protein of amphotropic MLV (4070A envelope), on purified viral particles (amphotropic murine leukemia virus (4070A envelope)); assay: ELISA on plate-bound MLV, dilution factor 156250, Exp122-Ana Plate 2
[2] = molecular target: gp70 env protein of amphotropic MLV (4070A envelope), on purified viral particles (amphotropic murine leukemia virus (4070A envelope)); assay: ELISA on plate-bound MLV, dilution factor 10, Exp072-DTV Plate 1
[3] = molecular target: gp70 env protein of amphotropic MLV (4070A envelope), on purified viral particles (amphotropic murine leukemia virus (4070A envelope)); assay: ELISA on plate-bound MLV, dilution factor 250, Exp074-DTV Plate 1
[4] = molecular target: gp70 env protein of amphotropic MLV (4070A envelope), on purified viral particles (amphotropic murine leukemia virus (4070A envelope)); assay: ELISA on plate-bound MLV, dilution factor 6250, Exp074-DTV Plate 1
[5] = molecular target: gp70 env protein of amphotropic MLV (4070A envelope), on purified viral particles (amphotropic murine leukemia virus (4070A envelope)); assay: ELISA on plate-bound MLV, dilution factor 781250, Exp073-DTV Plate 1
[6] = molecular target: gp70 env protein of amphotropic MLV (4070A envelope), on purified viral particles (amphotropic murine leukemia virus (4070A envelope)); assay: ELISA on plate-bound MLV, dilution factor 50, Exp122-Ana Plate 1
[7] = molecular target: gp70 env protein of amphotropic MLV (4070A envelope), on purified viral particles (amphotropic murine leukemia virus (4070A envelope)); assay: ELISA on plate-bound MLV, dilution factor 1250, Exp121-Ana Plate 2
[8] = molecular target: gp70 env protein of amphotropic MLV (4070A envelope), on purified viral particles (amphotropic murine leukemia virus (4070A envelope)); assay: ELISA on plate-bound MLV, dilution factor 6250, Exp072-DTV Plate 2
[9] = molecular target: gp70 env protein of amphotropic MLV (4070A envelope), on purified viral particles (amphotropic murine leukemia virus (4070A envelope)); assay: ELISA on plate-bound MLV, dilution factor 781250, Exp121-Ana Plate 1
[10] = molecular target: gp70 env protein of amphotropic MLV (4070A envelope), on purified viral particles (amphotropic murine leukemia virus (4070A envelope)); assay: ELISA on plate-bound MLV, dilution factor 10, Exp122-Ana Plate 2
[11] = molecular target: gp70 env protein of amphotropic MLV (4070A envelope), on purified viral particles (amphotropic murine leukemia virus (4070A envelope)); assay: ELISA on plate-bound MLV, dilution factor 156250, Exp072-DTV Plate 1
[12] = molecular target: gp70 env protein of amphotropic MLV (4070A envelope), on purified viral particles (amphotropic murine leukemia virus (4070A envelope)); assay: ELISA on plate-bound MLV, dilution factor 250, Exp125-Ana Plate 1
[13] = molecular target: gp70 env protein of amphotropic MLV (4070A envelope), on purified viral particles (amphotropic murine leukemia virus (4070A envelope)); assay: ELISA on plate-bound MLV, dilution factor 1250, inter-assay mean of six experiments
[14] = molecular target: gp70 env protein of amphotropic MLV (4070A envelope), on purified viral particles (amphotropic murine leukemia virus (4070A envelope)); assay: ELISA on plate-bound MLV, dilution factor 6250, Exp121-Ana Plate 1
[15] = molecular target: gp70 env protein of amphotropic MLV (4070A envelope), on purified viral particles (amphotropic murine leukemia virus (4070A envelope)); assay: ELISA on plate-bound MLV, dilution factor 781250, Exp125-Ana Plate 2
[16] = molecular target: gp70 env protein of amphotropic MLV (4070A envelope), on purified viral particles (amphotropic murine leukemia virus (4070A envelope)); assay: ELISA on plate-bound MLV, dilution factor 50, Exp074-DTV Plate 1
[17] = molecular target: gp70 env protein of amphotropic MLV (4070A envelope), on purified viral particles (amphotropic murine leukemia virus (4070A envelope)); assay: ELISA on plate-bound MLV, dilution factor 156250, Exp073-DTV Plate 1
[18] = molecular target: gp70 env protein of amphotropic MLV (4070A envelope), on purified viral particles (amphotropic murine leukemia virus (4070A envelope)); assay: ELISA on plate-bound MLV, dilution factor 781250, Exp073-DTV Plate 2
[19] = molecular target: gp70 env protein of amphotropic MLV (4070A envelope), on purified viral particles (amphotropic murine leukemia virus (4070A envelope)); assay: ELISA on plate-bound MLV, dilution factor 250, Exp122-Ana Plate 1
[20] = molecular target: gp70 env protein of amphotropic MLV (4070A envelope), on purified viral particles (amphotropic murine leukemia virus (4070A envelope)); assay: ELISA on plate-bound MLV, dilution factor 156250, Exp121-Ana Plate 1
[21] = molecular target: gp70 env protein of amphotropic MLV (4070A envelope), on purified viral particles (amphotropic murine leukemia virus (4070A envelope)); assay: ELISA on plate-bound MLV, dilution factor 781250, Exp125-Ana Plate 1
[22] = molecular target: gp70 env protein of amphotropic MLV (4070A envelope), on purified viral particles (amphotropic murine leukemia virus (4070A envelope)); assay: ELISA on plate-bound MLV, dilution factor 6250, Exp121-Ana Plate 2
[23] = molecular target: gp70 env protein of amphotropic MLV (4070A envelope), on purified viral particles (amphotropic murine leukemia virus (4070A envelope)); assay: human anti-MLV ELISA on plate-bound MLV, anti-rat Ig HRP alone or conjugate cocktail
[24] = molecular target: gp70 env protein of amphotropic MLV (4070A envelope), on purified viral particles (amphotropic murine leukemia virus (4070A envelope)); assay: ELISA on plate-bound MLV, dilution factor 31250, Exp125-Ana Plate 1
[25] = molecular target: gp70 env protein of amphotropic MLV (4070A envelope), on purified viral particles (amphotropic murine leukemia virus (4070A envelope)); assay: ELISA on plate-bound MLV, dilution factor 10, Exp121-Ana Plate 1
[26] = molecular target: gp70 env protein of amphotropic MLV (4070A envelope), on purified viral particles (amphotropic murine leukemia virus (4070A envelope)); assay: ELISA on plate-bound MLV, dilution factor 6250, inter-assay mean of six experiments

gp70 env protein of amphotropic MLV (4070A envelope), on purified viral particles (amphotropic murine leukemia virus (4070A envelope)), sequence (P21995 whole entry): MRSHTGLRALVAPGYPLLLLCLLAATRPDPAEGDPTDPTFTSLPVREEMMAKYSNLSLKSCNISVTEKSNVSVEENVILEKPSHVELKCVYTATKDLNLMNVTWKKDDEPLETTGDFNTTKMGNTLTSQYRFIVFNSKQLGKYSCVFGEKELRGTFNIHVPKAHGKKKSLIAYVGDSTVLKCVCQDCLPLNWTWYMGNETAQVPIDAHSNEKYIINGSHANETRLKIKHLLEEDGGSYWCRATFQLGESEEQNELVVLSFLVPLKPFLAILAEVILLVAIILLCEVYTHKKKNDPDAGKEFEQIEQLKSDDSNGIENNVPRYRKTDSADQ

**Q.** Which Mean OD [1] does the source give for “83A25 monoclonal antibody (rat IgG2a, anti-gp70)” here?
**A.** Its Mean OD is 0.174 OD.

**Q.** What about the Mean OD [2] of the same substance?
**A.** The Mean OD was 1.98 OD.

**Q.** And the Mean OD [3]?
**A.** The Mean OD was 1.92 OD.

**Q.** And the Mean OD [4]?
**A.** The Mean OD was 0.636 OD.

**Q.** And the Mean OD [5]?
**A.** The Mean OD was 0.107 OD.

**Q.** And the Mean OD [6]?
**A.** The Mean OD was 2.01 OD.

**Q.** And the Mean OD [7]?
**A.** The Mean OD was 1.84 OD.

**Q.** What about the Mean OD [8] of the same substance?
**A.** The Mean OD was 0.612 OD.

**Q.** And the Mean OD [9]?
**A.** Its Mean OD is 0.137 OD.

**Q.** And the Mean OD [10]?
**A.** Its Mean OD is 2.18 OD.

**Q.** And the Mean OD [11]?
**A.** The Mean OD was 0.116 OD.

**Q.** And the Mean OD [12]?
**A.** The Mean OD was 1.85 OD.

**Q.** And the Mean OD (inter-assay mean) [13]?
**A.** The Mean OD (inter-assay mean) was 1.53 OD.

**Q.** And the Mean OD [14]?
**A.** Its Mean OD is 0.903 OD.

**Q.** And the Mean OD [15]?
**A.** The Mean OD was 0.105 OD.

**Q.** And the Mean OD [16]?
**A.** The Mean OD was 2.01 OD.

**Q.** And the Mean OD [17]?
**A.** The Mean OD was 0.14 OD.

**Q.** What about the Mean OD [18] of the same substance?
**A.** Its Mean OD is 0.11 OD.

**Q.** What about the Mean OD [19] of the same substance?
**A.** The Mean OD was 1.86 OD.

**Q.** And the Mean OD [20]?
**A.** Its Mean OD is 0.163 OD.

**Q.** What about the Mean OD [21] of the same substance?
**A.** Its Mean OD is 0.105 OD.

**Q.** What about the Mean OD [22] of the same substance?
**A.** The Mean OD was 0.758 OD.

**Q.** What about the titer (reciprocal dilution (1:x)) [23] of the same substance?
**A.** The titer (reciprocal dilution (1:x)) was 312000.

**Q.** And the Mean OD [24]?
**A.** Its Mean OD is 0.235 OD.

**Q.** And the Mean OD [25]?
**A.** Its Mean OD is 2.65 OD.

**Q.** And the Mean OD (inter-assay mean) [26]?
**A.** The Mean OD (inter-assay mean) was 0.693 OD.
